This test has as its target T1, mouse GUCY2c (mouse, UniProt Q3UWA6 20-1072).
T1 construct: whole, on cells; 300.19 cells over-expressing mouse GUCY2c, formalin-fixed paraffin-embedded cell pellets
T1 sequence (looked up): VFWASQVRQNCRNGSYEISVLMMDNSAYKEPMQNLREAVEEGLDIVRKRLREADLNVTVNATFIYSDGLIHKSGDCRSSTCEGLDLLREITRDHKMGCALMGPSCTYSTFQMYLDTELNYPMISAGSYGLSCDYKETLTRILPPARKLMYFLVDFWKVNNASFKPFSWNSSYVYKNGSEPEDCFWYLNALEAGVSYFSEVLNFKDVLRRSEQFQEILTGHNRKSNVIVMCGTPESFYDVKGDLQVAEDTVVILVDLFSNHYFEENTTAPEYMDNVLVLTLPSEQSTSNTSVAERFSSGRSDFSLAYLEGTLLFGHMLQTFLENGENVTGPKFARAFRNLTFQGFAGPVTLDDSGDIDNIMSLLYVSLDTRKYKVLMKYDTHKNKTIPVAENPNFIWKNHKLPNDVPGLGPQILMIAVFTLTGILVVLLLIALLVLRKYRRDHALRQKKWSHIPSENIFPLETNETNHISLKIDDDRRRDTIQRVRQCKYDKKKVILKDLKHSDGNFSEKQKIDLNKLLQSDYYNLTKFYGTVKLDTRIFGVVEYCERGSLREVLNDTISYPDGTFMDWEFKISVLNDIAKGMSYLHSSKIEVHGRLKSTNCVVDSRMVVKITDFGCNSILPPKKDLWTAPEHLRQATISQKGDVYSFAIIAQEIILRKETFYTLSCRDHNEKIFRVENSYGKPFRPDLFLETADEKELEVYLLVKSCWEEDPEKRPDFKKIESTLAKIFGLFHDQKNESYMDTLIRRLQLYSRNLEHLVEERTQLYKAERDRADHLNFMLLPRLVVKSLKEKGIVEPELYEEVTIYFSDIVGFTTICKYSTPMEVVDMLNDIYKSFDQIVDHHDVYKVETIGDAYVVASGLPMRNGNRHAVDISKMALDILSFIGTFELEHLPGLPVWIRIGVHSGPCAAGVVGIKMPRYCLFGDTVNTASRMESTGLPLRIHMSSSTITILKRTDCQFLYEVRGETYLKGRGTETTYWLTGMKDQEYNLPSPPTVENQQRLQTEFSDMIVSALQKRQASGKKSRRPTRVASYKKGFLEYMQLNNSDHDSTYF
The test is described as follows: IHC on FFPE pellets of 300.19 cells over-expressing mouse GUCY2c. As to the method: Empty holes were filled with paraffin and the array was allowed to warm at 40 ° C. in an incubator overnight to anneal the donor cores with the recipient block. Five micron sections of the cell microarray were cut, transferred to a water bath and placed on Superfrost Excell microscope slides (Fisher). Slides were allowed to dry overnight. After deparaffinization and rehydration of tissue sections, heat induced epitope retrieval was performed in the Retriever 2100 pressure cooker (Electron Microscopy Sciences) in Borg Decloaker buffer pH 9.5 (Biocare Medical) or pH 6.0 Citrate buffer (Thermo Scientific) followed by cooling to room temperature (RT). Endogenous peroxidase activity was inactivated with Peroxidazed 1 (Biocare Medical) for 10 m. Non-specific protein interactions were blocked for 10 m with Background Punisher (Biocare Medical). Each hybridoma was incubated without dilution for 1 h under both heat induced epitope retrieval conditions. Sections were rinsed in TBS and hybridoma binding was detected with Envision+ Mouse HRP (DAKO) for 30 m. Slides were rinsed in TBS and immunoreactivity was developed with Betazoid DAB Chromogen Kit (Biocare Medical) for 5 m, followed by rinses in distilled water. […] Slides were evaluated by a pathologist to assess immunoreactivity. […]

The record followed here is patent US20230146072A1 (Pfizer, published 2023).

B1: Anti-GUCY2c antibody Ab288 (antibody, mouse IgG1, kappa, V domains shown)
VH: DVQLQESGPGLVKPSQSLSLTCTVTGYSITSDYAWNWIRQFPGNNLEWMGYISYSGSTRYNPSLKSRISITRDTSKNQFFLQLNSVTSEDTATYYCAREDGYVAMDYWGQGTSVTVSS
VL: DIVLTQSPASLAVSLGQRATISCRASESVEYFGTSFMQWYQQRPGQPPKLLIYAASNVESGVPVRFSGSGSGTDFSLNIHPVEEDDIAMYFCQQSRKVPWTFGGGTNLEIKR
Regarding B1, the binding result is “no binding (tested: 2 µg/ml and 10 µg/ml)”.
